# Source: patent US20240324599A1, “PESTICIDAL ENZYMES FOR USE ON NEMATODES, INSECTS, AND MOLLUSKS” (priority 2023, published 2024)
# Read-outs that look alike come from different tables or passages of the source.
# Key:
# Format in all cases: in vivo
# [1] = tested on: soybean; assay: Field trial: Feruloyl Esterase soybean seed treatment, yield; settings: for Yield: soybean seed treatment, 1.0 fl oz/unit with Control Base Package
# Text: 1 fl oz/unit of Feruloyl Esterase (SEQ ID NO:91) was coated onto soybean seeds treated with Fludioxinil fungicide, metalaxyl fungicide, thiamethoxam […], Seedwork 1037L polymer, and Sensient Red (colorant). A control treatment without esterase enzyme was also created. The seed treated with esterase and control seed was planted in replicated trials distributed across 5 replicated plots with 4 replicates of 30 ft^2 each at each site.
# [2] = tested on: corn; assay: Field trial: PytH Esterase corn seed treatment, yield; settings: for Yield: corn seed treatment, 0.5 fl oz/unit with Control Base Package
# Text: 0.5 fl oz/unit of PythH Esterase from recombinant Bacillus subtilis fermentation (SEQ ID NO: 255) was coated onto Hybrid corn seeds treated with Fludioxinil fungicide, ipconazole fungicide, peridium 1006 polymer, and Sensient Red (colorant). A control treatment without esterase enzyme was also created. The seed treated with esterase and control seed was planted in replicated trials distributed across 10 replicated plots with 4 replicates of 100 ft2 each at each site.
# [3] = tested on: soybean cyst nematode (SCN, Heterodera glycines); assay: Controlled environment soybean seed treatment trial: SCN cysts on roots; settings: Table 16
# [4] = tested on: SCN juveniles (SCN HG type 1.2.5.7, race 2)
# Text: To identify an additional esterase enzyme with efficacy in reducing SCN viability, we performed an in-vitro plate assay with a Pseudomonas sp. esterase (SEQ ID NO: 248) free enzyme direct treatment. The Pseudomonas sp. esterase (SEQ ID NO: 248) was produced by fermentation in Bacillus subtilis. The enzyme was cloned into a Bacillus expression plasmid p1797 with isopropyl β-d-1-thiogalactopyranoside (IPTG) inducible expression. The plasmid was transformed into B. subtilis, and the gene sequence was confirmed. The strain was grown in rich media until an optical density (OD) 0.2-0.5 was reached. Enzyme expression was then induced by addition of […] IPTG. Following the culture harvest, cells were removed by filtration through a […] filter. The culture filtrate containing the secreted enzyme was then collected and used for further applications.
# (§1) SCN eggs were obtained from SCN HG type 1.2.5.7, race 2. Eggs were rinsed 4 times with sterile water. Eggs were transferred to a 6-well plate and resuspended in 5 mL of 3 mM ZnSO4. The plate was sealed with parafilm, covered with aluminum foil to prevent light from entering the plate, and placed in a plate growth chamber at 25° C. and 80% relative humidity. After 6-7 days of incubation, an estimate of hatched SCN juveniles was obtained from the well to determine the overall number of juveniles per 10 μL. The concentration of the hatchery solution was adjusted until it consisted of 20-30 juveniles per 10 μL.
# Potato dextrose agar media containing chloramphenicol and chlortetracycline was prepared and added to sterile twenty-four-well cell culture plates (1 mL per well). The plates were divided according to the pre-determined N-value for each treatment (N=12-24). Each treatment being tested was added to the agar surface within each well at a rate of 40 μL per well. Without allowing the treatments to dry, 10 μL of the prepared nematode mixture was added to the agar surface within each well.
# To quantify the treatments' effects on nematode viability, the nematodes were examined under a dissecting microscope at 20× magnification. Initial (T0) values for the number of live juveniles, number of dead juveniles and total number of juveniles were recorded immediately after preparation of each well. The plates were then wrapped in parafilm around the open edge, encased in aluminum foil, and placed in secondary containment. The secondary containment was placed in a plant growth chamber at 25° C. and 80% relative humidity. At approximately 24 hours post addition of juveniles, the plates were evaluated, and the number of live juveniles, dead juveniles and total number of juveniles were recorded (T24).
# The difference in percent death at T0 vs T24 was calculated by subtracting the percent dead at TO [(#dead juveniles/total #juveniles)×100] from the percent dead at T24 [(#dead juveniles/#total juveniles originally present)×100]. […] If the ANOVA indicated a significant difference existed among treatments, Tukey's HSD post hoc test was used to perform a pairwise contrast between each set of treatments. Different letters denote statistically significant results at P<0.05.
# as §1, with “from” for “from SCN”, “rinsed four” for “rinsed 4”, “and 80-90%” for “and 80%”, “from each” for “from the”
# Potato dextrose agar media containing chloramphenicol and chlortetracycline was prepared and added to sterile twenty-four-well cell culture plates (1 mL per well). […]
# [5] = tested on: corn; assay: Greenhouse trial: Rhizopus oryzae Esterase corn seed treatment, plant height
# Protocol: Rhizopus oryzae Esterase (carboxylesterase, SEQ ID NO:253) was coated onto 6049 V2 hybrid corn seeds. A water only control treatment without esterase enzyme was also created. The seed treated with esterase and control seed was planted in replicated greenhouse trials on promix soil with a fluctuating day/night temperature of 78° F./75° F., and 13 hours of light daily. Plant heights were measured on day 10 for each plant emerged from the soil.
# [6] = tested on: Fall armyworm (Spodoptera frugiperda); assay: Diet-surface overlay (DSO) bioassay; settings: Table 46
# Protocol: Diet-surface overlay bioassays are conducted with artificial diet mixes without antibiotics in 1.5 cm^2 cell bioassay trays(s). Artificial diets are commercially available from Southland Products Inc. Diets were prepared by dispersing 0.5 mL of molten diet to each 1.5 cm^2 cell. After solidification, 0.1 mL enzyme treatments were dispersed on top of diet in each cell and the tray was gently rocked in an orbital shaker to spread the liquid uniformly over the diet surface. Trays were placed under clean airflow until the surface of each cell was uniformly dried. One or two 16-cell sections were used per treatment (the number in larvae treated was 16 or 32).
# One healthy first instar larva was placed into each treatment cell, each 16-cell section was covered with a re-sealable lid and incubated at 27° C. and light-dark period of 16:8 hrs. After 7 days, and according to the species, the number of individuals in the following developmental categories was recorded.
# Negative/untreated controls were treated with filtered water and positive controls were treated with lethal doses of Bacillus thuringiensis subsp. Kurstaki (Btk) spores at 1000 ppm.
# [7] = tested on: Garden snails (Cornu aspersum); assay: Antifeedant and molluscicide bioassay (artificial diet): consumption, survival, weight gain; settings: n = 12, 12 days
# Protocol: Two-week old garden snails (Cornu aspersum) and full-size black gloss snails (Zonitoides nitidus) were maintained in a semi-darkened tank at 68-70° F. at high humidity, provided with a wet sponge in a petri dish. Snails were transferred to fresh tank every 2-3 days, and they were feed ad libitum with cucumber slices supplemented with calcium carbonate tablets. Individuals were reared in the laboratory for at least a week to fully acclimate to laboratory conditions prior to testing. The individuals ranged between 3 weeks to 2 months old at the time of bioassay.
# Filter-sterilized recombinant enzymes including proteases and lipases were prepared as indicated in Example 25. Corresponding controls (e.g., buffer, fermentation of non-recombinant strain, water) were be prepared accordingly. Enzymes were dried by mixing them with Polyvinylpyrrolidone K30 (Thermo Sci Chem, Cat #227545000) at a ratio of 60 mg PVP per mL of enzymes, dispersed on a petri dish and allowed to dry in a bio-safety hood for 24-48 hours.
# The treatments were prepared by mixing 0.4 g of dry enzyme and 1 gram of artificial diet mix. The artificial diet mix consisted of flour supplemented with 30 mg sucrose per gram of flour. Control diet contained 0.4 g of PVP and 1 g of artificial diet mix.
# 12 snails were randomly assigned to each treatment, labeled with permanent marker on the top of the shell for identification, and their weight (mg) was recorded before treatment. Then snails were transferred to dry plastic containers containing two petri dishes. Humidity was maintained with a folded and soaked light duty tissue paper in one petri dish. 1 g of treatment was provided as a thin layer on the other petri dish and was replaced every other day. At the time of treatment replacement, treatment consumption, weight, and mortality were recorded.
molecule,measurement,setting,value
"Beauveria bassiana Feruloyl Esterase A2 (protein, listed as Beauveria bassiana, Feruloyl Esterase A2) MLSLLGFLGFAALAAAAPVRDQAFIPRTLVNRSIYDKLALYAGYTQLSNTGICARPSVPGVLYQFVESKDTDTQVSIWKVDAYKEFVIAIPGTSSARDNETNFDFALVPYQADNVRCPSCRVHKGYQAAWRSVMKQVQGNLTNLLGIHPDYTVTLTGHSLGGGLVSIAFPTLRNGPYNVTQAYTYGQPRAGNGAFANYVDGISGASDKEAGIFYRVTHANDLIPKLPPGIFGYKHSRTEYWESKPSMDNAASTYRCYGQEPADCNRNATGIDSKVHVTYAGMNVTCNKS",Yield,[1]; control 63.99,64.86 Bu/A
same,Yield,[1]; control 4303.4,4361.9 Kg/ha
same,"yield versus base seed treatment package, in words","[1]; text to Table 56, 1 fl oz/unit",increased the yield
"Sphingobium wenxiniae (PytH) Esterase (protein, listed as Sphingobium wenxiniae) MTVTDIILIHGALNRGACYDAVVPLLEARGYRVHAPDLTGHTPGDGGHLSVVDMEHYTRPVADILARAEGQSILLGHSLGGASISWLAQHHPDKVAGLIYLTAVLTAPGITPETFVLPGEPNRGTPHALDLIQPVDEGRGLQADFSRLERLREVFMGDYPGEGMPPAEQFIQTQSTVPFGTPNPMEGRALEIPRLYIEALDDVVIPIAVQRQMQKEFPGPVAVVSLPASHAPYYSMPERLAEAIADFADAPAEYRQTATKAGPDRPAGADGGRADRADLP",Yield,[2]; control 205.5,208.8 Bu/A
same,Yield,[2]; control 13820.1,14042.0 Kg/ha
same,"yield versus base seed treatment package, in words","[2]; text to Table 57, 0.5 fl oz/unit",increased the yield
"Pseudomonas sp. Esterase (protein, listed as Pseudomonas sp.) MTEPLILQPVKPADACVIWLHGLGADRYDFLPVAEALQEILLSTRFVLPQAPTRPVTINGGYAMPSWYDIKAMSPARAIDRDELEASADRIIELIEEQRSSGIDASRIFLAGFSQGGAVVYHTAFLKWQGPLGGVLALSTYAPTFSDELELSASQQRIPVLSLHGQFDNVVQNSMGRTAYEYLKAHGVTVTWQEYPMEHEVLPEEIRDIGTWLSERLR",% Comparison to Control,"[3]; base control = 100%, change in brackets",90% (−10%)
same,Average cysts per g of root tissue,"[3]; seed treatment, soybean 2830E3, concentrate = 4× volumetric concentration, base control 244.3",220.2 cysts per g of root tissue
same,Difference in Percent Death of Nematodes for 0 to 24 Hours,"[4]; Table 17, 40 μL per well, water control 4%",22%
same,Difference in Percent Death of Nematodes for 0 to 24 Hours,"[4]; Table 32, 40 μL of each treatment per well, water only 4%",22%
same,difference in percent death during 24 hours,[4]; text to Table 32,22%
"Rhizopus oryzae Esterase (protein, listed as Rhizopus oryzae, Rhizopus cf. oryzae) SDGGKVVAATTAQIQEFTKYAGIAATAYCRSVVPGNKWDCVQCQKWVPDGKIITTFTSLLSDTNGYVLRSDKQKTIYLVFRGTNSFRSAITDIVFNFSDYKPVKGAKVHAGFLSSYEQVVNDYFPVVQEQLTANPTYKVIVTGHSLGGAQALLAGMDLYQREPRLSPKNLSIFTVGGPRVGNPTFAYYVESTGIPFQRTAHKRDIVPHVPPQSFGFLHPGVESWIKSGTSNVQICTSEIETKDCSNSIVPFTSILDHLSYFDINEGSCL",Height as % of Control,"[5]; Table 60, corn seed treatment 0.5 fl oz/unit, plant height on day 10, water control 100%",103.7%
same,"growth rate of corn, in words",[5]; text to Table 60,increase the growth rate
"PpII Lipase: free lipase from porcine pancreas Type II (PpII) (protein, UniProt P00591 1-450, looked up) Pancreatic triacylglycerol …: SEVCFPRLGCFSDDAPWAGIVQRPLKILPWSPKDVDTRFLLYTNQNQNNYQELVADPSTITNSNFRMDRKTRFIIHGFIDKGEEDWLSNICKNLFKVESVNCICVDWKGGSRTGYTQASQNIRIVGAEVAYFVEVLKSSLGYSPSNVHVIGHSLGSHAAGEAGRRTNGTIERITGLDPAEPCFQGTPELVRLDPSDAKFVDVIHTDAAPIIPNLGFGMSQTVGHLDFFPNGGKQMPGCQKNILSQIVDIDGIWEGTRDFVACNHLRSYKYYADSILNPDGFAGFPCDSYNVFTANKCFPCPSEGCPQMGHYADRFPGKTNGVSQVFYLNTGDASNFARWRYKVSVTLSGKKVTGHILVSLFGNEGNSRQYEIYKGTLQPDNTHSDEFDSDVEVGDLQKVKFIWYNNNVINPTLPRVGASKITVERNDGKVYDFCSQETVREEVLLTLNPC",Dead Larva,"[6]; individuals of n = 32 after 7 days, U/mL diet: Bc 3.8, Pf 5.2, PpII 0.4, Rm 2.8, Lipase nd, water 2",0
same,Larva Stage I,"[6]; n = 32, doses as E92, water 0",2
same,Larva Stage II,"[6]; n = 32, doses as E92, water 0",5
same,Larva Stage III,"[6]; n = 32, doses as E92, water 0",15
same,Larva Stage IV,"[6]; n = 32, doses as E92, water 30",10
same,Dead Snails,"[7]; Table 62, lipases, garden snail, control diet 0",0
same,Diet consumption,"[7]; Table 62, lipases, garden snail, control diet 1.16",0.82 gr
same,"food consumption, in words","[7]; text to Table 62, lipases",consistent reduction in food consumption
